The record followed here is patent publication US10087225B2, “Formulation of MK2 inhibitor peptides” (MOERAE MATRIX, INC., priority 2015, dated 2018).

Test in all cases: Kinase Profiling Assay
What all share (format): biochemical

One experiment has as its target T1, PRAK(h) (Homo sapiens, UniProt Q8IW41).
T1 sequence (Q8IW41 1-473): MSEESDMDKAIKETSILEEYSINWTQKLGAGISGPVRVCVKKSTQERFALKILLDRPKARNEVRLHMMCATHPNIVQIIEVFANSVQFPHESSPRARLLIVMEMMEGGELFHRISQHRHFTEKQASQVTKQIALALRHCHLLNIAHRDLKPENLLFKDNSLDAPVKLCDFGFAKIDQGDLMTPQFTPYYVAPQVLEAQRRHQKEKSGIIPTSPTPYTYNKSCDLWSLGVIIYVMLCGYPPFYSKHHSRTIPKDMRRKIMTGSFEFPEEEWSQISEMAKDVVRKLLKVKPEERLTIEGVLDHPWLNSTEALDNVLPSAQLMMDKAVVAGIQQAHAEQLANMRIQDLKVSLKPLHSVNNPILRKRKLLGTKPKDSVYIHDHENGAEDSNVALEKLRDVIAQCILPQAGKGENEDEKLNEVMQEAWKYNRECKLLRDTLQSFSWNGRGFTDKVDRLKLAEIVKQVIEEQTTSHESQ

Another experiment concerns the target T2, TAO1(h) (Homo sapiens, UniProt Q7L7X3).
T2 sequence (Q7L7X3 1-1001): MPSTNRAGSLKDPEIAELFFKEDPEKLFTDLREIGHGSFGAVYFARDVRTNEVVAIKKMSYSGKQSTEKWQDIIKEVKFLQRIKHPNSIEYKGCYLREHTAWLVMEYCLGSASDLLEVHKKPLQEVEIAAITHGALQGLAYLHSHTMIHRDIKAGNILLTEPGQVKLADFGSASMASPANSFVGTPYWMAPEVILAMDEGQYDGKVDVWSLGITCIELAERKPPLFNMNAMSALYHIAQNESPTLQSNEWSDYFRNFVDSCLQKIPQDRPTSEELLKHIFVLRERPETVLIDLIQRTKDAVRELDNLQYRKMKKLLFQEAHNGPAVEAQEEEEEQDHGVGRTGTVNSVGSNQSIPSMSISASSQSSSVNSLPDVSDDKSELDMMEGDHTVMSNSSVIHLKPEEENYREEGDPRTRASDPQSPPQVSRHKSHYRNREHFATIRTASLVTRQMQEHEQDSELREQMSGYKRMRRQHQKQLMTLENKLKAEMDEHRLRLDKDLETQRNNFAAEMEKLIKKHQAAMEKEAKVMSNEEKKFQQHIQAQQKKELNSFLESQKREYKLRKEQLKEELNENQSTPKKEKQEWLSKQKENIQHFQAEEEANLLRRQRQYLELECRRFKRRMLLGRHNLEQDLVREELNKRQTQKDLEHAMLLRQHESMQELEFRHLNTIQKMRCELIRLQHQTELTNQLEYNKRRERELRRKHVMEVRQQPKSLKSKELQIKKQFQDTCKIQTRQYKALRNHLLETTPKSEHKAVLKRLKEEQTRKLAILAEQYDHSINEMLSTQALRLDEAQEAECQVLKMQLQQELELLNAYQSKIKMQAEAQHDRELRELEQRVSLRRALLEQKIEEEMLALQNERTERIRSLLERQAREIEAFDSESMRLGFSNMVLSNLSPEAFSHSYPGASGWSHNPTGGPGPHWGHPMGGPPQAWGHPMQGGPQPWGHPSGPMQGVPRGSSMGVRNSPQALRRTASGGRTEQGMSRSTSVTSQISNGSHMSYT

For another experiment, the target named is MAPK1(h) (Homo sapiens, UniProt P27361).
For a further experiment, the target named is ROCK-II(h) (Homo sapiens, UniProt O75116). As to conditions: 100 μM.
For another experiment, the target named is T3, PDK1(h) (Homo sapiens, UniProt O15530).
T3 sequence (O15530 1-556): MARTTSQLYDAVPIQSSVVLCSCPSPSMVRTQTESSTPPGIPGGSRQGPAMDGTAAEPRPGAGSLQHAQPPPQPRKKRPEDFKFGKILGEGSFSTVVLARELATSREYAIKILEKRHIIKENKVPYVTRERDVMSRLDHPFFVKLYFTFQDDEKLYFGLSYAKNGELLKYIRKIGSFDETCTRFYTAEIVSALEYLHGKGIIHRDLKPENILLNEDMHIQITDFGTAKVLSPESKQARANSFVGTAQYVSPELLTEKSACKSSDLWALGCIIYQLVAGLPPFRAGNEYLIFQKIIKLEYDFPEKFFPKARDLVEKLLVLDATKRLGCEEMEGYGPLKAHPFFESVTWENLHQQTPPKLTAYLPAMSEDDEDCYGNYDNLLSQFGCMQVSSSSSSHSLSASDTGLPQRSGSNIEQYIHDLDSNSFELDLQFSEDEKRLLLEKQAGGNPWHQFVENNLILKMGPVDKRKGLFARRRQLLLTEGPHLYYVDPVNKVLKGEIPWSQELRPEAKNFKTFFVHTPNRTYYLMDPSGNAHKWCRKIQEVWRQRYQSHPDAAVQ
Conditions: 100 μM.

The target in a further experiment is RIPK2(h) (Homo sapiens, UniProt O43353). Conditions: 100 μM.
The target of a further experiment is T4, PhKγ2(h) (Homo sapiens, UniProt P15735).
T4 sequence (P15735 1-406): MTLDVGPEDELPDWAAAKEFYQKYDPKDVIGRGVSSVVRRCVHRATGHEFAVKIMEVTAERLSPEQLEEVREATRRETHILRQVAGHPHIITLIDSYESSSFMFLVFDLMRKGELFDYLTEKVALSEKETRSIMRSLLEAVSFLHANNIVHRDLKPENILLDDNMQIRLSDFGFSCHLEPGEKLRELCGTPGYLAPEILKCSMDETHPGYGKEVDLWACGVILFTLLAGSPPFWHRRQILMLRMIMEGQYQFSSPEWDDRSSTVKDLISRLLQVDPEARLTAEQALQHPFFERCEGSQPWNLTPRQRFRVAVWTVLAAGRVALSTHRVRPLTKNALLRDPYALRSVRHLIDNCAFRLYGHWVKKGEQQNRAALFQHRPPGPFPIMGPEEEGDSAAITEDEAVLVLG
Conditions: 100 μM.

RIPK2(h), sequence (O43353 whole entry): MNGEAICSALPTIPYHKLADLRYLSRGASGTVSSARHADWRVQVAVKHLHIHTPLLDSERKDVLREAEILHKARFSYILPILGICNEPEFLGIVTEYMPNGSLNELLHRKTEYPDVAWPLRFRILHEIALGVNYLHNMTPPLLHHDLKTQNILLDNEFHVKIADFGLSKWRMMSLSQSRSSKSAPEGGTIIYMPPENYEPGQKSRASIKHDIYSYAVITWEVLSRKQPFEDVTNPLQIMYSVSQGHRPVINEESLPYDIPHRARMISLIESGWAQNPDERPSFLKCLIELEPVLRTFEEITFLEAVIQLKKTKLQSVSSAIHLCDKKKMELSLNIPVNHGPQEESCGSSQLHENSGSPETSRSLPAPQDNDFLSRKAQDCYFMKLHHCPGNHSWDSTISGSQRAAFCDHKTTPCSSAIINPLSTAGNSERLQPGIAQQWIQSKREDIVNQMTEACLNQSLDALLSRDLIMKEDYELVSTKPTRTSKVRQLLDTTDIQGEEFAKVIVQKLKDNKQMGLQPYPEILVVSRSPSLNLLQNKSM
ROCK-II(h), sequence (O75116 whole entry): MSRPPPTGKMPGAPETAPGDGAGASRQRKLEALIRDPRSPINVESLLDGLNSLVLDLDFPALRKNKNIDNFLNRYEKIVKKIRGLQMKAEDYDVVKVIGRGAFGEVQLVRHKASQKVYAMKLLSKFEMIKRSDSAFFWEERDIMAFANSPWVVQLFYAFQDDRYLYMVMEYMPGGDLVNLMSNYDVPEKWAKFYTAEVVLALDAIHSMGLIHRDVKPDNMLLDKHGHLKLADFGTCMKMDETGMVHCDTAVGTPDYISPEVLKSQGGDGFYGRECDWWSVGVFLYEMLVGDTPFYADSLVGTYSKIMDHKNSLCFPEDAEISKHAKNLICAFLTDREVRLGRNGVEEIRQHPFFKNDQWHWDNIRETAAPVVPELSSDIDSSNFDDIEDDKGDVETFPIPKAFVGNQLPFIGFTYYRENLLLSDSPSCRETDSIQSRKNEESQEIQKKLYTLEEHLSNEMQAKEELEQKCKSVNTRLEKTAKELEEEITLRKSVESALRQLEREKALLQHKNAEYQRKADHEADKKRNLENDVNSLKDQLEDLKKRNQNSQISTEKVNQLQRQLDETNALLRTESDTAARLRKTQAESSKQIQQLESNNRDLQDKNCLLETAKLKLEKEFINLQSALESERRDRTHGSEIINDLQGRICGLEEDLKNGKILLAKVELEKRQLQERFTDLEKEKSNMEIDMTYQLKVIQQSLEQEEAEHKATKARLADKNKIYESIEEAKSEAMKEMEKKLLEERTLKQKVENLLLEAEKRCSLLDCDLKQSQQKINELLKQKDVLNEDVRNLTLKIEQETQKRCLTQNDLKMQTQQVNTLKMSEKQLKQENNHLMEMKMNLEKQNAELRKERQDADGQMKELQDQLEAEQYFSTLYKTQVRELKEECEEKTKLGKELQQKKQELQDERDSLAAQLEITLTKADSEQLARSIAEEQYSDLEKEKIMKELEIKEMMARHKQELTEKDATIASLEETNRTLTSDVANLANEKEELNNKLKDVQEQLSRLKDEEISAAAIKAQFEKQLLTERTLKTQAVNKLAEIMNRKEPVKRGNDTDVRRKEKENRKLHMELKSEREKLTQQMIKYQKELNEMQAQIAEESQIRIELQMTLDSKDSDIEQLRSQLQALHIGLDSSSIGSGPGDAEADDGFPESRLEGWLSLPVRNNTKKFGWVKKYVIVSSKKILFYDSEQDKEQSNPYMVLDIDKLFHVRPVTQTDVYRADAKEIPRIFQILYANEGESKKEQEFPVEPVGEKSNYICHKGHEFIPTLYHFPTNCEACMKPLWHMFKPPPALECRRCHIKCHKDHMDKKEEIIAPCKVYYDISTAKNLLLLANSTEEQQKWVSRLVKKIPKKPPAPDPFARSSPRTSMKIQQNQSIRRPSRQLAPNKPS
MAPK1(h), sequence (P27361 whole entry): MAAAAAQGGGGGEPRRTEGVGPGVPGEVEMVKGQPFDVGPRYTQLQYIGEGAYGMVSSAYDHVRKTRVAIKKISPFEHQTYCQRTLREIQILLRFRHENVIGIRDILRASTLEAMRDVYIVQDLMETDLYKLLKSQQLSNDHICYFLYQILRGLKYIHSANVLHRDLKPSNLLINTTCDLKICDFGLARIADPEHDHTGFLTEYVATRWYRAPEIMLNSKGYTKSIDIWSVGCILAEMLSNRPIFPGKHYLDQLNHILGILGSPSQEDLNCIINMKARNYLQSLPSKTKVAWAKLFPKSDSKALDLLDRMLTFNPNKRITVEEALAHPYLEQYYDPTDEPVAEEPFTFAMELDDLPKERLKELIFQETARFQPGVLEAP

H-YARAAARQARAKALARQLGVAA-OH [MMI-0100]: the results for the activity at 100 µM at PRAK(h), at TAO1(h) and on MAPK1(h) were 159%, 99% and 108%, respectively.

As to “HRRIKAWLKKIKALARQLGVAA (Mammalian) [MMI-0500]”, the “% activity” value in the experiment with PRAK(h) (100 μM) came out at 95%; in the experiment with TAO1(h) (100 μM) it was 24%; with ROCK-II(h), 2%; in the experiment with PDK1(h), 178%; in the experiment with RIPK2(h), 30%; with PhKγ2(h), 16%.

Take “YARAAARQARAKALNRQLGVA (Mammalian) [MMI-0200]”: the “% activity” value is listed as 85% with ROCK-II(h); 97% with MAPK1(h) (100 μM); 143% with PDK1(h); 98% in the experiment with RIPK2(h); 86% with PhKγ2(h).
